Paper PMC8199036, “Improved Tumor-Targeting with Peptidomimetic Analogs of Minigastrin ^177Lu-PP-F11N” (Cancers, 2021)
“And” between values parts separate entries of the source, which are not always exact repeats. Equal values may be shown once. Read-outs that look alike come from different tables or passages of the source.

Columns and labels:
[1] = set-up: method as in PMID 30608664; details: 177Lu-labeled; mouse blood, 10 min p.i.; reported previously; cited from earlier work
[2] = set-up: method as in PMID 30608664; details: 177Lu-labeled; 24 h incubation, human blood plasma; reported previously; cited from earlier work
[3] = biodistribution in mice with CCK2R-positive xenografts; assay type: in vivo, female CD1-nu mice; details: female, CD1-nu, mouse, in vivo, total radioactivity; for tissue uptake at 1 h: 1 h p.i.; for tissue uptake at 24 h: 24 h p.i.
Procedure: (§1) Procedures for biodistribution studies with ^177Lu-labeled conjugates (10 pmol, 100 µL, 0.1 µM in PBS, 0.5 MBq, 1 µg/kg) in female CD1-nu mice with xenografts of A431-CCK2R cells at 1, 4, and 24 h p.i., as well as blocking experiments at 4 h p.i. with a 6000-fold excess of minigastrin have been reported previously and were followed without modifications. Statistical analysis was performed via GraphPad Prism using two-sided analysis of variance. n = 4 animals per group.

[4] = system: xenografts of A431-CCK2R cells; assay: as above; assay type: in vivo, female CD1-nu mice
Procedure: as §1

[5] = 10 pmol, read-out: Heart uptake
[6] = 10 pmol, read-out: Intestines uptake
[7] = 10 pmol, read-out: Kidneys uptake
[8] = 10 pmol, read-out: Liver uptake
[9] = 10 pmol, read-out: Pancreas uptake
[10] = 10 pmol, read-out: Spleen uptake
[11] = 10 pmol, read-out: Stomach (CCK2R-positive) uptake
[12] = 10 pmol, read-out: Tumor (CCK2R-positive) uptake

Q: For `CCCC[C@H](NC(=O)[C@H](Cc1c[nH]c2ccccc12)NC(=O)CNC(=O)[C@H](Cc1ccc(O)cc1)NC(=O)[C@H](C)NC(=O)[C@@H](CCC(=O)O)NC(=O)[C@@H](CCC(=O)O)NC(=O)[C@@H](CCC(=O)O)NC(=O)[C@@H](CCC(=O)O)NC(=O)[C@@H](CCC(=O)O)NC(=O)[C@@H](CCC(=O)O)NC(=O)CN1CCN(CC(=O)O)CCN(CC(=O)O)CCN(CC(=O)O)CC1)C(=O)N[C@@H](CC(=O)O)C(=O)N[C@@H](Cc1ccccc1)C(N)=O` [PP-F11N, DOTA-(DGlu)6-Ala-Tyr-Gly-Trp-Nle-Asp-Phe-NH2], which “Intact Compound In Vivo (%), 10 min” value [1] is on record?
A: 43% and 43.1 ± 2.7%

Q: What about the “Intact Compound In Vitro (%), 24 h, Blood Plasma” value [2] of the same compound?
A: 98.1 ± 0.9%

Q: And the tissue uptake at 1 h ([3]; 10 pmol, read-out: Bone uptake)?
A: 0.88 %ID/g

Q: And the tissue uptake at 1 h [3, 5]?
A: 0.08 %ID/g

Q: And the tissue uptake at 1 h [3, 6]?
A: 0.12 %ID/g

Q: And the tissue uptake at 1 h [3, 7]?
A: 2.75 %ID/g

Q: And the tissue uptake at 1 h [3, 8]?
A: 0.09 %ID/g

Q: What about the tissue uptake at 1 h ([3]; 10 pmol, read-out: Lung uptake) of the same compound?
A: 0.16 %ID/g

Q: And the tissue uptake at 1 h ([3]; 10 pmol, read-out: Muscle uptake)?
A: 0.13 %ID/g

Q: And the tissue uptake at 1 h [3, 9]?
A: 0.18 %ID/g

Q: And the tissue uptake at 1 h [3, 10]?
A: 0.06 %ID/g

Q: And the tissue uptake at 1 h [3, 11]?
A: 1.02 %ID/g

Q: And the tissue uptake at 1 h [3, 12]?
A: 6.92 %ID/g

Q: What about the tissue uptake at 4 h ([3]; 10 pmol, 4 h (blocked), excess minigastrin, read-out: Bone uptake) of the same compound?
A: 0.15 %ID/g

Q: What about the tissue uptake at 4 h ([3]; 10 pmol, 4 h (blocked), excess minigastrin, read-out: Muscle uptake) of the same compound?
A: 0.01 %ID/g

Q: What about the tissue uptake at 4 h ([3]; 10 pmol, 4 h p.i., read-out: Blood uptake) of the same compound?
A: 0.01 %ID/g

Q: And the tissue uptake at 4 h ([3]; 10 pmol, 4 h p.i., read-out: Bone uptake)?
A: 0.22 %ID/g

Q: What about the tissue uptake at 4 h ([3]; 10 pmol, 4 h p.i., read-out: Heart uptake) of the same compound?
A: 0.03 %ID/g

Q: What about the tissue uptake at 4 h ([3]; 10 pmol, 4 h p.i., read-out: Intestines uptake) of the same compound?
A: 0.05 %ID/g

Q: What about the tissue uptake at 4 h ([3]; 10 pmol, 4 h p.i., read-out: Kidneys uptake) of the same compound?
A: 2.42 %ID/g

Q: What about the tissue uptake at 4 h ([3]; 10 pmol, 4 h p.i., read-out: Liver uptake) of the same compound?
A: 0.06 %ID/g

Q: And the tissue uptake at 4 h ([3]; 10 pmol, 4 h p.i., read-out: Lung uptake)?
A: 0.03 %ID/g

Q: What about the tissue uptake at 4 h ([3]; 10 pmol, 4 h p.i., read-out: Muscle uptake) of the same compound?
A: 0.02 %ID/g

Q: What about the tissue uptake at 4 h ([3]; 10 pmol, 4 h p.i., read-out: Pancreas uptake) of the same compound?
A: 0.09 %ID/g

Q: And the tissue uptake at 4 h ([3]; 10 pmol, 4 h p.i., read-out: Spleen uptake)?
A: 0.03 %ID/g

Q: And the tissue uptake at 4 h ([3]; 10 pmol, 4 h p.i., read-out: Stomach (CCK2R-positive) uptake)?
A: 1.04 %ID/g

Q: And the tissue uptake at 4 h ([3]; 10 pmol, 4 h p.i., read-out: Tumor (CCK2R-positive) uptake)?
A: 4.07 %ID/g

Q: And the tissue uptake at 24 h ([3]; 10 pmol, read-out: Bone uptake)?
A: 0.1 %ID/g

Q: What about the tissue uptake at 24 h [3, 5] of the same compound?
A: 0.01 %ID/g

Q: What about the tissue uptake at 24 h [3, 6] of the same compound?
A: 0.03 %ID/g

Q: And the tissue uptake at 24 h [3, 7]?
A: 1.72 %ID/g

Q: What about the tissue uptake at 24 h [3, 8] of the same compound?
A: 0.04 %ID/g

Q: And the tissue uptake at 24 h ([3]; 10 pmol, read-out: Lung uptake)?
A: 0.02 %ID/g

Q: And the tissue uptake at 24 h [3, 9]?
A: 0.08 %ID/g

Q: And the tissue uptake at 24 h [3, 10]?
A: 0.02 %ID/g

Q: What about the tissue uptake at 24 h [3, 11] of the same compound?
A: 0.67 %ID/g

Q: What about the tissue uptake at 24 h [3, 12] of the same compound?
A: 2.73 %ID/g

Q: What about the tissue uptake at 4 h ([3]; 4 h (blocked), excess minigastrin, read-out: Blood uptake) of the same compound?
A: 0.01 %ID/g

Q: What about the tissue uptake at 4 h ([3]; 4 h (blocked), excess minigastrin, read-out: Heart uptake) of the same compound?
A: 0.02 %ID/g

Q: What about the tissue uptake at 4 h ([3]; 4 h (blocked), excess minigastrin, read-out: Intestines uptake) of the same compound?
A: 0.03 %ID/g

Q: What about the tissue uptake at 4 h ([3]; 4 h (blocked), excess minigastrin, read-out: Kidneys uptake) of the same compound?
A: 2.57 %ID/g

Q: And the tissue uptake at 4 h ([3]; 4 h (blocked), excess minigastrin, read-out: Liver uptake)?
A: 0.07 %ID/g

Q: What about the tissue uptake at 4 h ([3]; 4 h (blocked), excess minigastrin, read-out: Lung uptake) of the same compound?
A: 0.04 %ID/g

Q: And the tissue uptake at 4 h ([3]; 4 h (blocked), excess minigastrin, read-out: Pancreas uptake)?
A: 0.04 %ID/g

Q: What about the tissue uptake at 4 h ([3]; 4 h (blocked), excess minigastrin, read-out: Spleen uptake) of the same compound?
A: 0.04 %ID/g

Q: And the tissue uptake at 4 h ([3]; 4 h (blocked), excess minigastrin, read-out: Stomach (CCK2R-positive) uptake)?
A: 0.12 %ID/g

Q: What about the tissue uptake at 4 h ([3]; 4 h (blocked), excess minigastrin, read-out: Tumor (CCK2R-positive) uptake) of the same compound?
A: 1.3 %ID/g

Q: What about the “Tumor (CCK2R-positive) uptake” value ([4]; 1 h p.i.) of the same compound?
A: 6.92 ± 2.21 % i.A./g

Q: What about the “Tumor (CCK2R-positive) uptake” value ([4]; 4 h p.i.) of the same compound?
A: 4.07 ± 1.40 % i.A./g

Q: What about the “Tumor (CCK2R-positive) uptake” value ([4]; 24 h p.i.) of the same compound?
A: 2.73 ± 0.84 % i.A./g and 2.7 ± 0.8 % i.A./g
